The text below walks through data of patent US20210252159A1, “CONJUGATES OF CARTILAGE-HOMING PEPTIDES” (priority 2018, published 2021).

Data set [1] can be described thus: Hydrolysis assay of peptide-drug conjugates in rat plasma (free drug by LC/MS). The following applies: 37° C. Format: in vitro ADME.
The next data set deals with CIA rats. The data set is classed as in vivo. Particulars: 0.05 mg/kg on study day 0 and day 1. The protocol:
A study was conducted in CIA rats to address the following: 1) functionality and duration of effect for peptide(SEQ ID NO: 105)-carbamate-Dex at 0.2 mg/kg as compared to Dex alone at the same dose; 2) functionality and duration of effect for peptide(SEQ ID NO: 105)-DMA-Dex at 0.05 mg/kg as compared to Dex alone at the same dose; 3) systemic markers of Dex exposure in rats treated with each PDC and Dex at their respective doses (FIG. 16B-FIG. 16G).
CIA was induced as described above in EXAMPLE 21. Rats were enrolled in the study following onset of arthritis in at least one ankle and randomly assigned into one of five treatment groups (vehicle; peptide-carbamate 0.2 mg/kg; Dex 0.2 mg/kg; peptide-DMA conjugate 0.05 mg/kg; Dex 0.05 mg/kg) with 5 rats per group. Treatment was administered on study day 0 and study day 1 and rats were euthanized on study day 7. The primary read-out in this cohort was change in ankle diameter during and after treatment, as a measure of functionality and duration of effect. […] The primary read-out for this cohort was measures of systemic exposure to Dex which included thymus weight, spleen weight, total white blood cell counts, lymphocyte counts, and change in body weight.

Where two headings read alike, the source gives them in different places. Positions of bridges follow the written chain, without caps; N, C: chain ends. Residues, ends and D or L forms follow the SMILES beside them. *: point of attachment. X1 = CC(CCC(C)C(=O)*)C(=O)OCC(=O)[C@@]1(O)[C@H](C)C[C@H]2[C@@H]3CCC4=CC(=O)C=C[C@]4(C)[C@@]3(F)[C@@H](O)C[C@@]21C

Broadly, the half-life is the time in which the quantity being followed falls by half. Consider `CC[C@H](C)[C@@H]1NC(=O)[C@@H]2CSSC[C@H](NC(=O)[C@H](CCCNC(=N)N)NC(=O)[C@@H](NC(=O)[C@H](CC(N)=O)NC(=O)[C@@H](NC(=O)[C@@H]3CCCN3C(=O)[C@@H](NC(=O)CNC(=O)[C@H](CO)NC(=O)CNC(=O)C(C)CCC(C)C(=O)OCC(=O)[C@@]3(O)[C@H](C)C[C@H]4[C@@H]5CCC6=CC(=O)C=C[C@]6(C)[C@@]5(F)[C@@H](O)C[C@@]43C)C(C)C)[C@@H](C)CC)C(C)C)C(=O)N[C@@H](CCCNC(=N)N)C(=O)NCC(=O)N[C@@H](CO)C(=O)N[C@@H](CCCNC(=N)N)C(=O)N[C@@H](CC(=O)O)C(=O)N[C@H]3CSSC[C@H](NC(=O)[C@H](CCCNC(=N)N)NC(=O)[C@H](CO)NC(=O)[C@H](CC(N)=O)NC1=O)C(=O)N[C@@H](Cc1c[nH]cn1)C(=O)N[C@H](C(=O)N[C@H](C(=O)N1CCC[C@H]1C(=O)O)[C@@H](C)O)CSSC[C@H](NC(=O)[C@@H]1CCCN1C(=O)[C@H](CC(=O)O)NC(=O)[C@H](CC(C)C)NC3=O)C(=O)N[C@@H](CCCNC(=N)N)C(=O)N[C@@H](CCCNC(=N)N)C(=O)N[C@@H](C)C(=O)NCC(=O)N[C@@H](CCSC)C(=O)N[C@@H](CCCNC(=N)N)C(=O)N[C@@H](Cc1ccccc1)C(=O)NCC(=O)N[C@@H](CCCNC(=N)N)C(=O)N2` (stereo partly drawn) [Compound 27, peptide(SEQ ID NO: 105)-[dimethyladipic acid]-Dex] (X1-GSGVPINVRCRGSRDCLDPCRRAGMRFGRCINSRCHCTP-OH; disulfide 10-30, 16-35, 20-37 (inferred); C-terminus assumed), for which the half-life at 0.25 mg/mL in data set [1] (Rat Plasma, release of free Dex, time points to 32 hr, read-out: Half-life (hours) as measured in the hydrolysis experiments (converted)) is 9.9 h; in data set [1] (in rat plasma, free Dex, read-out: Hydrolysis half-life (converted)) it was 9.9 h. Besides, the “ankle diameter as compared to vehicle; magnitude and duration of effect” value in the data set with CIA rats is reported as “significant reduction”.
